IntAct's records for PubMed 28712572

Molecular target: gbrap_human GABARAP (UniProt O95166)
Sequence (O95166 whole entry): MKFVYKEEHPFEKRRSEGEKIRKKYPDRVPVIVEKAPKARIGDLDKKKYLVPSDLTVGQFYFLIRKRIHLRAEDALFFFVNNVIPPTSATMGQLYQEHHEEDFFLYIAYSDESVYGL

| effect of a mutation on the interaction | Substance |
| --- | --- |
| with no effect | Pericentriolar material 1 protein (Homo sapiens), Q15154 N1953G |
| with no effect | Pericentriolar material 1 protein (Homo sapiens), Q15154 N1953H |
| with no effect | Pericentriolar material 1 protein (Homo sapiens), Q15154 N1953I |
| with no effect | Pericentriolar material 1 protein (Homo sapiens), Q15154 N1953K |
| with no effect | Pericentriolar material 1 protein (Homo sapiens), Q15154 N1953L |
| with no effect | Pericentriolar material 1 protein (Homo sapiens), Q15154 N1953M |
| with no effect | Pericentriolar material 1 protein (Homo sapiens), Q15154 N1953P |
| with no effect | Pericentriolar material 1 protein (Homo sapiens), Q15154 N1953Q |
| with no effect | Pericentriolar material 1 protein (Homo sapiens), Q15154 N1953R |
| with no effect | Pericentriolar material 1 protein (Homo sapiens), Q15154 N1953S |
| with no effect | Pericentriolar material 1 protein (Homo sapiens), Q15154 N1953T |
| with no effect | Pericentriolar material 1 protein (Homo sapiens), Q15154 N1953V |
| with no effect | Pericentriolar material 1 protein (Homo sapiens), Q15154 N1953W |
| with no effect | Pericentriolar material 1 protein (Homo sapiens), Q15154 N1953Y |
| decreasing interaction strength | Pericentriolar material 1 protein (Homo sapiens), Q15154 P1970A |
| with no effect | Pericentriolar material 1 protein (Homo sapiens), Q15154 P1970C |
| decreasing interaction strength | Pericentriolar material 1 protein (Homo sapiens), Q15154 P1970D |
| decreasing interaction strength | Pericentriolar material 1 protein (Homo sapiens), Q15154 P1970E |
| with no effect | Pericentriolar material 1 protein (Homo sapiens), Q15154 P1970F |
| decreasing interaction strength | Pericentriolar material 1 protein (Homo sapiens), Q15154 P1970G |
| with no effect | Pericentriolar material 1 protein (Homo sapiens), Q15154 P1970H |
| decreasing interaction strength | Pericentriolar material 1 protein (Homo sapiens), Q15154 P1970I |
| disrupting interaction strength | Pericentriolar material 1 protein (Homo sapiens), Q15154 P1970K |

| effect of a mutation on the interaction | Substance |
| --- | --- |
| decreasing interaction strength | Pericentriolar material 1 protein (Homo sapiens), Q15154 P1970L |
| decreasing interaction strength | Pericentriolar material 1 protein (Homo sapiens), Q15154 P1970M |
| decreasing interaction strength | Pericentriolar material 1 protein (Homo sapiens), Q15154 P1970N |
| decreasing interaction strength | Pericentriolar material 1 protein (Homo sapiens), Q15154 P1970Q |
| decreasing interaction strength | Pericentriolar material 1 protein (Homo sapiens), Q15154 P1970R |
| disrupting interaction strength | Pericentriolar material 1 protein (Homo sapiens), Q15154 P1970S |
| disrupting interaction strength | Pericentriolar material 1 protein (Homo sapiens), Q15154 P1970T |
| disrupting interaction strength | Pericentriolar material 1 protein (Homo sapiens), Q15154 P1970V |
| with no effect | Pericentriolar material 1 protein (Homo sapiens), Q15154 P1970W |
| disrupting interaction strength | Pericentriolar material 1 protein (Homo sapiens), Q15154 P1970Y |
| with no effect | Pericentriolar material 1 protein (Homo sapiens), Q15154 Q1956A |
| with no effect | Pericentriolar material 1 protein (Homo sapiens), Q15154 Q1956C |
| with no effect | Pericentriolar material 1 protein (Homo sapiens), Q15154 Q1956D |
| with no effect | Pericentriolar material 1 protein (Homo sapiens), Q15154 Q1956E |
| with no effect | Pericentriolar material 1 protein (Homo sapiens), Q15154 Q1956F |
| with no effect | Pericentriolar material 1 protein (Homo sapiens), Q15154 Q1956G |
| with no effect | Pericentriolar material 1 protein (Homo sapiens), Q15154 Q1956H |
| with no effect | Pericentriolar material 1 protein (Homo sapiens), Q15154 Q1956I |
| with no effect | Pericentriolar material 1 protein (Homo sapiens), Q15154 Q1956K |
| with no effect | Pericentriolar material 1 protein (Homo sapiens), Q15154 Q1956L |
| with no effect | Pericentriolar material 1 protein (Homo sapiens), Q15154 Q1956M |
| with no effect | Pericentriolar material 1 protein (Homo sapiens), Q15154 Q1956N |
| with no effect | Pericentriolar material 1 protein (Homo sapiens), Q15154 Q1956P |

| effect of a mutation on the interaction | Substance |
| --- | --- |
| with no effect | Pericentriolar material 1 protein (Homo sapiens), Q15154 Q1956R |
| with no effect | Pericentriolar material 1 protein (Homo sapiens), Q15154 Q1956S |
| with no effect | Pericentriolar material 1 protein (Homo sapiens), Q15154 Q1956T |
| with no effect | Pericentriolar material 1 protein (Homo sapiens), Q15154 Q1956V |
| with no effect | Pericentriolar material 1 protein (Homo sapiens), Q15154 Q1956W |
| with no effect | Pericentriolar material 1 protein (Homo sapiens), Q15154 Q1956Y |
| with no effect | Pericentriolar material 1 protein (Homo sapiens), Q15154 S1955A |
| with no effect | Pericentriolar material 1 protein (Homo sapiens), Q15154 S1955C |
| with no effect | Pericentriolar material 1 protein (Homo sapiens), Q15154 S1955D |
| with no effect | Pericentriolar material 1 protein (Homo sapiens), Q15154 S1955E |
| with no effect | Pericentriolar material 1 protein (Homo sapiens), Q15154 S1955F |
| with no effect | Pericentriolar material 1 protein (Homo sapiens), Q15154 S1955G |
| with no effect | Pericentriolar material 1 protein (Homo sapiens), Q15154 S1955H |
| with no effect | Pericentriolar material 1 protein (Homo sapiens), Q15154 S1955I |
| with no effect | Pericentriolar material 1 protein (Homo sapiens), Q15154 S1955K |
| with no effect | Pericentriolar material 1 protein (Homo sapiens), Q15154 S1955L |
| with no effect | Pericentriolar material 1 protein (Homo sapiens), Q15154 S1955M |
| with no effect | Pericentriolar material 1 protein (Homo sapiens), Q15154 S1955N |
| with no effect | Pericentriolar material 1 protein (Homo sapiens), Q15154 S1955P |
| with no effect | Pericentriolar material 1 protein (Homo sapiens), Q15154 S1955Q |
| with no effect | Pericentriolar material 1 protein (Homo sapiens), Q15154 S1955R |
| with no effect | Pericentriolar material 1 protein (Homo sapiens), Q15154 S1955T |
| decreasing interaction strength | Pericentriolar material 1 protein (Homo sapiens), Q15154 S1955V |
